# Columns and labels:
# [1] = test system: endothelial cells (HUVECs); test: Cell culture on microgels, HUVEC; format: cell-based, human; conditions: first 24 h of culture
# Procedure: (§1) A 1.2×10^6 amount of cells suspended in 4 mL of complete cell culture media (300,000 cells/mL) was mixed with 200 μL of microgels by pipetting. The mix was seeded at […] in a 24-well low binding plate and kept at 37° C., 95% humidity, and 5% CO2 under rocker conditions at 30 rpm for 24 h. Then, cell-laden microgels were transferred into a tube by pipetting and spun down at 50 g for 5 min. The upper layer, containing cells not adherent to the microgels, was discarded. At this moment, cell-laden microgels were either resuspended with complete cell culture media to continue cell culture under rocker conditions or processed for staining.
# (§2) The cell-laden microgels were fixed with 4% formaldehyde (v/v) in PBS and incubated for 30 min at 22° C. Later, formaldehyde was removed by centrifugation, and cell-laden microgels were washed twice with PBS in a similar way. Permeabilization buffer (6.3 mM MgCl2, 233.7 mM sucrose, 0.5% (v/v) Triton® X-100 in PBS) was kept at −20° C. and thawed just before use. […]
# (§3) Proliferative cells were labeled by incubating cell-laden microgels with […] EdU in complete medium for 24 h in rocking culture at 30 rpm. […] EdU was detected following the manufacturer instructions by incubating cell-laden microgels with a Click-iT Plus reaction cocktail for 30 min at 22° C. protected from light. […]
# [2] = Microgel stability under cell culture procedures; format: physicochemical; conditions: for Microgel size and shape stability: autoclaving, UV irradiation, trypsinization, rocking, 37 and 22° C.
# Procedure: A 400 μL amount of microgels was diluted in 6 mL of DMEM, and aliquots of 1 mL were seeded in five 35 mm plastic Petri dishes and one 40 mm glass Petri dish. Each dish containing microgels was treated as follows: (1) Autoclaving at 121° C. for 20 min using the glass dish, (2) UV irradiation for 30 min, and (3) 0.125% trypsin-EDTA at 37° C. for 5 min. In addition, the remaining dishes containing microgels were treated for 16-18 days as follows: (4) 37° C., 95% humidity, and 5% CO2, (5) 37° C., 95% humidity, and 5% CO2 under rocker conditions at 30 rpm, and (6) 22° C. on a shelf. Microgel imaging was done before treatment and follow up every other day. FIG. 31 summarizes the experimental design.
# Microgel imaging was done at each condition and time point using a CLSM Zeiss® 710 or 880 by tile scanning with 15% overlapping and online stitching to capture as many microgels as possible from the dish. The Feret diameter and roundness of each microgel was calculated using ImageJ software by manually drawing up to 59 microgel contours per condition. All statistical data analysis and microgel descriptor plotting were conducted in Origin software. To assess the effect of the treatments on the microgel diameter and roundness, a Kruskal—Wallis test with Posthoc test pairwise Mann—Whitney U tests was applied.
# [3] = Rheological characterization of SUP bulk hydrogels; format: physicochemical
# Procedure: The mechanical stiffness of the peptide hydrogels was analyzed using a TA Ares-G2 Rheometer equipped with parallel-plate geometries of 8 mm diameter at room temperature. The sample gap between the upper and the lower geometries was set at 1.8 mm. The hydrogels were prepared from 135 μL of peptide solution that was mixed with 15 μL of 10×PBS in an 8 mm i.d. poly(methyl methacrylate) (PMMA) casting ring and left for 1 day before measurement. The rings were kept inside Petri dishes at room temperature with water surrounding them and tightly sealed to avoid dehydration. To control the accuracy of the measurements, six replicates for each peptide hydrogel were prepared. The stiffness was analyzed through three successive tests, which were time sweep, frequency sweep, and amplitude sweep. Time sweep was first performed for 5 min with an angular frequency and a strain of 1 rad/s and 0.1%, respectively. A frequency sweep was subsequently performed on the sample for a range of angular frequency of 0.1-100 rad/s with the same strain of 0.1%. The tests were completed with the amplitude sweep by applying a gradual increase of strain […] at 1 rad/s angular frequency.
# [4] = test system: fibroblasts (HDFn); test: Cell culture on microgels, HDFn; format: cell-based, human; conditions: first 24 h of culture
# Procedure: as §1, §2, §3
# [5] = 22 C. at day 0, 2, 4, 10, 12, 14, 16, 18, the 5th table
# [6] = 22 C. at day 0, 2, 4, 10, 12, 14, 16, the 4th table
# [7] = 22 C., Autoclaving, UV and Trypsin, the 4th table
# [8] = 22 C., Autoclaving, UV and Trypsin, the 5th table
# [9] = 37 C. at day 0, 2, 4, 10, 12, 14, 16, 18, the 5th table
# [10] = 37 C. at day 0, 2, 4, 10, 12, 14, 16, the 4th table
# [11] = 37 C. at day 0, 2, 4, 16, 12, 14, 16, 18, the 5th table
# [12] = 37 C. with rocking at day 0, 2, 4, 10, 12, 14, 16, 18, the 5th table
# [13] = 37 C. with rocking at day 0, 2, 4, 10, 12, 14, 16, the 4th table
# [14] = 37 C. with rocking at day 0, 2, 4, 10, 12, 14, 36, 18, the 5th table
substance,measurement,setting,value
"Ac-Ile-Val-Cha-Lys-NH2 (IVXK; HELM PEPTIDE1{[ac].I.V.[Cha].K.[am]}$$$$V2.0; SMILES CC[C@H](C)[C@H](NC(C)=O)C(=O)N[C@H](C(=O)N[C@@H](CC1CCCCC1)C(=O)N[C@@H](CCCCN)C(N)=O)C(C)C) [IVZK, self-assembling ultrashort tetrapeptide, Z = cyclohexylalanine, forms hydrogels and microgels]",HUVEC cell adhesion and morphology on microgels,[1],cell adhesion and stretched morphology
same,Microgel size and shape stability,[2],maintain their size and shape
same,"Mechanical stiffness of hydrogel, comparison","[3]; IVZK versus IVFK hydrogels, FIG. 15",higher stiffness
same,HDFn cell adhesion and morphology on microgels,[4],cell adhesion and stretched morphology
"Ac-Ile-Val-Phe-Lys-NH2 (Ac-IVFK-NH2) [self-assembling ultrashort tetrapeptide, forms hydrogels and microgels]",HUVEC cell adhesion and morphology on microgels,[1],cell adhesion and stretched morphology
same,"X2 (Kruskal-Wallis), microgel diameter",[2]; [5],10.76
same,"X2 (Kruskal-Wallis), microgel roundness",[2]; [5],7.72
same,"p (Kruskal-Wallis), microgel diameter",[2]; [5],>0.05
same,"p (Kruskal-Wallis), microgel roundness",[2]; [5],>0.05
same,"X2 (Kruskal-Wallis), microgel diameter",[2]; [6],1.69
same,"X2 (Kruskal-Wallis), microgel roundness",[2]; [6],1.65
same,"p (Kruskal-Wallis), microgel diameter",[2]; [6],>0.05
same,"p (Kruskal-Wallis), microgel roundness",[2]; [6],>0.05
same,"X2 (Kruskal-Wallis), microgel diameter",[2]; [7],3.99
same,"X2 (Kruskal-Wallis), microgel roundness",[2]; [7],6.48
same,"p (Kruskal-Wallis), microgel diameter",[2]; [7],>0.05
same,"p (Kruskal-Wallis), microgel roundness",[2]; [7],>0.05
same,"X2 (Kruskal-Wallis), microgel diameter",[2]; [8],5.61
same,"X2 (Kruskal-Wallis), microgel roundness",[2]; [8],1.82
same,"p (Kruskal-Wallis), microgel diameter",[2]; [8],>0.05
same,"p (Kruskal-Wallis), microgel roundness",[2]; [8],>0.05
same,"X2 (Kruskal-Wallis), microgel roundness",[2]; [9],12.93
same,"p (Kruskal-Wallis), microgel roundness",[2]; [9],>0.05
same,"X2 (Kruskal-Wallis), microgel diameter",[2]; [10],1.28
same,"X2 (Kruskal-Wallis), microgel roundness",[2]; [10],7.52
same,"p (Kruskal-Wallis), microgel diameter",[2]; [10],>0.05
same,"p (Kruskal-Wallis), microgel roundness",[2]; [10],>0.05
same,"X2 (Kruskal-Wallis), microgel diameter",[2]; [11],13.16
same,"p (Kruskal-Wallis), microgel diameter",[2]; [11],>0.05
same,"p (Kruskal-Wallis), microgel diameter","[2]; 37 C. with mocking at day 0, 2, 4, 10, 12, 14, 16, the 4th table",>0.05
same,"X2 (Kruskal-Wallis), microgel diameter",[2]; [12],10.89
same,"p (Kruskal-Wallis), microgel diameter",[2]; [12],>0.05
same,"X2 (Kruskal-Wallis), microgel diameter",[2]; [13],5.81
same,"X2 (Kruskal-Wallis), microgel roundness",[2]; [13],3.62
same,"p (Kruskal-Wallis), microgel roundness",[2]; [13],>0.05
same,"X2 (Kruskal-Wallis), microgel roundness",[2]; [14],4.28
same,"p (Kruskal-Wallis), microgel roundness",[2]; [14],>0.05
same,Microgel size and shape stability,[2],maintain their size and shape
same,"Linear viscoelastic (LVE) region of hydrogel, comparison","[3]; amplitude sweep, IVFK versus IVZK, FIGS. 18 and 19",wider
same,HDFn cell adhesion and morphology on microgels,[4],cell adhesion and stretched morphology

# — US20230382948A1, “DELIVERY OF ENDOTHELIAL CELL-LADEN MICROGEL ELICITS ANGIOGENESIS IN SELF-ASSEMBLING ULTRASHORT PEPTIDE HYDROGELS” (KING ABDULLAH UNIVERSITY OF SCIENCE AND TECHNOLOGY, priority 2020, published 2023)
